From paper PMC6180346, “Two Faces of CwlM, an Essential PknB Substrate, in Mycobacterium tuberculosis” (Cell Reports, 2018)

How the values were obtained:
Test in all cases: co-IP; recombinant CwlM (PknB-phosphorylated or non-phosphorylated) and the other recombinant protein, 10 μg each, in 20 mM KH2PO4 pH 7.0, 100 mM NaCl, 10 mM KCl, with anti-CwlM-IgG-Sepharose; bound and unbound on SDS-PAGE, Coomassie; densitometry as percent of the total amount used
[1] = target: Recombinant 6xHis-tagged CwlM, PknB-phosphorylated (M. tuberculosis) (UniProt L7N653)
[2] = target: Recombinant 6xHis-tagged CwlM, non-phosphorylated (M. tuberculosis) (UniProt L7N653)
[3] = target: T1, Recombinant 6xHis-tagged CwlM, non-phosphorylated (M. tuberculosis, UniProt L7N653 1-406); conditions: both partners purified
T1 construct: also called non-phosphorylated recombinant CwlM; non-phosphorylated CwlM
T1 sequence: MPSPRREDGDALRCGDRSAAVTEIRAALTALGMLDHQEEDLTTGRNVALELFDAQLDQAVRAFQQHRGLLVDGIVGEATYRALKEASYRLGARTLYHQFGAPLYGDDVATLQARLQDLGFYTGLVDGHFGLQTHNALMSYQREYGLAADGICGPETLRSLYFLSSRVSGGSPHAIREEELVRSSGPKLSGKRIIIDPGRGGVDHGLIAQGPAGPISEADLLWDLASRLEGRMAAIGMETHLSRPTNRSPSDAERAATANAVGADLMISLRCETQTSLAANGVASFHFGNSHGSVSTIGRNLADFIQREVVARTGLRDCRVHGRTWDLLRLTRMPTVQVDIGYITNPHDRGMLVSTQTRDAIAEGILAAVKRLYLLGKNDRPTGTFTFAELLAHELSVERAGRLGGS

Row | Molecule | percent co-precipitated [1] [%] | percent co-precipitated [2] [%] | binding result [3]
1 | Recombinant 6XHis-tagged MurJ ICD (domain or fragment) | 12 | 85 | 
2 | Recombinant 6xHis-tagged 6xHis-MurJ_(E541-F680) (domain or fragment, The N-terminal end of the tag is read from the printed name 6xHis-MurJ_(E541-F680); also called MurJ linker; linker region (E541-F680)) EARAALDAVRARIRSRRLKTGPQTQNVLDQSSRPGPVTYPERRRLAPPRGKSVVHEPIRRRPPEQVARAGRAKGPEVIDRPSENASFGAASGAELPRPVADELQLDAPAGRDPGPVSRPHPSDLQNGDLPADAARGPIAF |  |  | binds
